Here are results for two molecules from patent US20180194839A1 (Novartis, published 2018).

Where a chain is given by its changes, count along the chain named. Names may count otherwise.

In assay [1] the target is T1, recombinant mouse IL-17A (SEQ ID NO: 83) (mouse, UniProt Q62386 26-158).
T1 sequence: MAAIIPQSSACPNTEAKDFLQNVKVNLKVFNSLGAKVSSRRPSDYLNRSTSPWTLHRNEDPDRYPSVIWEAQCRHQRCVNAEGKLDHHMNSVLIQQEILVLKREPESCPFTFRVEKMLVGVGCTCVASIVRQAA
Briefly: cell-based or functional assay.

Assay [2] has as its target T2, recombinant mouse IL-17A/F (R&D Systems Cat#5390-IL) (mouse, UniProt Q62386 26-158; Q7TNI7 29-161, limits assumed).
T2 sequence (looked up) 1: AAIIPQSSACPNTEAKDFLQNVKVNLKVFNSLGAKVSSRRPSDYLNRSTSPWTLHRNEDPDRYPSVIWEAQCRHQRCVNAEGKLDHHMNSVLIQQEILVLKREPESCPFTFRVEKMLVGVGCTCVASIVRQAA
T2 sequence (looked up) 2: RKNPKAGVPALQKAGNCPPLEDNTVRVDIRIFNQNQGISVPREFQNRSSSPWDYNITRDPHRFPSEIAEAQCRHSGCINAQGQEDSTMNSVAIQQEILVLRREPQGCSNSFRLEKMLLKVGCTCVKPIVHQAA
Briefly: cell-based or functional assay.

For assay [3], the target named is T3, recombinant mouse IL-17F (SEQ ID NO: 84) (mouse, UniProt Q7TNI7 29-161).
T3 sequence: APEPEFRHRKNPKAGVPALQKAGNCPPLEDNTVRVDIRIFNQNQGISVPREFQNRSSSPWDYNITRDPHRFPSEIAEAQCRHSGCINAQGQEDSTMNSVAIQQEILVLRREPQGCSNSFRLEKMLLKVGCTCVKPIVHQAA
Description: cell-based or functional assay.

Assay [4] concerns the target T4, recombinant rat IL-17A (SEQ ID NO: 85) (rat, UniProt Q61453 18-150).
T4 sequence: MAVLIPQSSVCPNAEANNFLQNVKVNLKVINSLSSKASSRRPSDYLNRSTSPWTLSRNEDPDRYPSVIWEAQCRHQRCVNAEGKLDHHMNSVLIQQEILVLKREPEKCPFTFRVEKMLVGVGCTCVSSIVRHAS
Briefly: cell-based or functional assay.

Assay [5] has as its target T1, recombinant mouse IL-17A (SEQ ID NO: 83). Briefly: cell-based or functional assay. The source holds these as a separate data set.
Assay [6] deals with T5, recombinant human IL-17A/F heterodimer (human, UniProt Q16552 24-155; Q96PD4 31-163, limits assumed).
T5 construct: heterodimer of an IL-17A subunit and an IL-17F subunit; also called huIL-17A/F; rhuIL-17A/F
T5 sequence (looked up) 1: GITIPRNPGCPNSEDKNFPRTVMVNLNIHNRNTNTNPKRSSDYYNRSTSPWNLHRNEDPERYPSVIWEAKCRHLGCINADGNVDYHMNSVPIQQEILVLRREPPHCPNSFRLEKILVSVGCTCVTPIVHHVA
T5 sequence (looked up) 2: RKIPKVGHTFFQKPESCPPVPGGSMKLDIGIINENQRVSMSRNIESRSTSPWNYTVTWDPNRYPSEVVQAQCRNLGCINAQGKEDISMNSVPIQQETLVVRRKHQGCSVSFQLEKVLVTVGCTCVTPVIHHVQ
Briefly: ELISA, coated cytokine, Ab 10 µg/ml.

Assay [7] deals with T6, recombinant human IL-20 (Novartis) (human, UniProt Q9NYY1 25-176, limits assumed).
T6 construct: also called huIL-20
T6 sequence (looked up): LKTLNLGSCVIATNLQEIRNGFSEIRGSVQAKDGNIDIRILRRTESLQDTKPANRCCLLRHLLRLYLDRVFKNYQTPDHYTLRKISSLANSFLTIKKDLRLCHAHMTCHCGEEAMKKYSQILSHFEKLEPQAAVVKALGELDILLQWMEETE
Briefly: ELISA, coated cytokine, Ab 10 µg/ml.

For assay [8], the target named is T7, recombinant human TNFα (Novartis) (human, UniProt P01375 77-233).
T7 construct: also called huTNFα
T7 sequence (P01375 77-233 limits assumed): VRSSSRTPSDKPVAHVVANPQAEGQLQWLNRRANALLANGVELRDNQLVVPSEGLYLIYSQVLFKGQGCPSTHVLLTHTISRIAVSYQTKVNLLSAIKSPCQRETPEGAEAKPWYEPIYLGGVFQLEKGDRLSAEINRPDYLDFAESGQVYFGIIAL
Briefly: ELISA, coated cytokine, Ab 10 µg/ml.

Assay [9] has as its target T4, recombinant rat IL-17A (SEQ ID NO: 85). Description: ELISA, coated cytokine, Ab 10 µg/ml.
The target of assay [10] is T8, recombinant rat IL-4 (R&D Systems Cat#504-RL/CF) (rat, UniProt P20096 25-147, limits assumed).
T8 sequence (looked up): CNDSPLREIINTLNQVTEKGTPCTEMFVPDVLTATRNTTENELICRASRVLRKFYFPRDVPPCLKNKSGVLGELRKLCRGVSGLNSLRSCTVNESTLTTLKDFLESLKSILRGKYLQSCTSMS
Description: ELISA, coated cytokine, Ab 10 µg/ml.

Assay [11] deals with T9, recombinant rat IL-6 (R&D Systems Cat#506-RL-010) (rat, UniProt P20607 25-211).
T9 sequence (looked up): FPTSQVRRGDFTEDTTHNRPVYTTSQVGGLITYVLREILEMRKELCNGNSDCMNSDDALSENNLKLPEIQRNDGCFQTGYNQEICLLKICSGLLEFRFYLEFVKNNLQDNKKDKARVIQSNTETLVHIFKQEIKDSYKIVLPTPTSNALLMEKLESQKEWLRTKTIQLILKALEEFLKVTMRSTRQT
Briefly: ELISA, coated cytokine, Ab 10 µg/ml.

Assay [12] deals with recombinant rat IL-12 (R&D Systems Cat#1760-RL/CF) (rat). Briefly: ELISA, coated cytokine, Ab 10 µg/ml.
The target in assay [13] is recombinant rat IL-23 (R&D Systems Cat#3136-RL-010/CF) (rat). Description: ELISA, coated cytokine, Ab 10 µg/ml.
Assay [14] concerns the target T10, recombinant rat TNFα (R&D Systems Cat#510-RT/CF) (rat, UniProt P16599 80-235).
T10 sequence (looked up): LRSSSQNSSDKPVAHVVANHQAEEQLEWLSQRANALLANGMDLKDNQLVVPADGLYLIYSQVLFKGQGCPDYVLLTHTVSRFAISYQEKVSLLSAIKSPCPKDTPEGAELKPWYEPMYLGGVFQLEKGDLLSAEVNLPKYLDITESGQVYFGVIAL
Briefly: ELISA, coated cytokine, Ab 10 µg/ml.

Assay [15] addresses T5, recombinant human IL-17A/F heterodimer. Description: competition ELISA: huIL-17A/F pre-incubated with antibody, binding to coated huIL-17RA.

B1: XAB4 (antibody, human IgG1, kappa, V domains shown)
VH: EVQLVESGGDLVQPGGSLRLSCAASGFTFSSYWMSWVRQAPGKGLEWVANIKQDGSEKYYVDSVKGRFTISRDNAKNSLYLQMNSLRAEDTAVYYCARDRGSLYYWGQGTLVTVSS
VL: AIQLTQSPSSLSASVGDRVTITCRPSQGINWELAWYQQKPGKAPKLLIYDASSLEQGVPSRFSGSGSGTDFTLTISSLQPEDFATYYCQQFNSYPLTFGGGTKVEIKR
notes: also called MB435 N56Q
Turning to B1, the “IC50, mouse KC secretion by CMT-93 cells; stimulus mIL-17A (1 nM)” value in assay [1] is 13.8 nM. Also, the “IC50, mouse KC secretion by CMT-93 cells; stimulus mIL-17A/F (3 nM)” value in assay [2] stood at 10.3 nM. Further, the “IC50, mouse KC secretion by CMT-93 cells; stimulus mIL-17F (30 nM)” value in [3] is > 10000 nM. Moreover, the “IC50, mouse KC secretion by CMT-93 cells; stimulus rIL-17A (1 nM)” value in assay [4] is 6.7 nM. In addition, the “IC50, KC secretion by CMT-93 cells; stimulus mIL-17A (0.15 nM)” value in [5] stood at 7 nM. Moreover, the O.D. in [6] was 3.1 O.D; in assay [7] it was 0.039 O.D; in assay [8] it was 0.009 O.D; in [9], 3.48 O.D; in assay [10], 0.026 O.D; in [11], 0.021 O.D. The O.D. in assay [12] was found to be 0.009 O.D; in [13], 0.023 O.D; in [14] it was 0.02 O.D. Moreover, the IC50 in assay [15] amounted to 154 nM.

B2: XAB1 (antibody, human IgG1, kappa, V domains shown)
VH: B1 VH
VL: B1 VL with N30I, W31S, E32A, Q56N
notes: human IgG1/kappa monoclonal antibody; also called parental XAB1; XAB1 IgG
Turning to B2, the “IC50, mouse KC secretion by CMT-93 cells; stimulus mIL-17A (1 nM)” value in [1] is 539 nM. Moreover, the “IC50, mouse KC secretion by CMT-93 cells; stimulus mIL-17A/F (3 nM)” value in assay [2] was > 1000 nM. Further, in assay [3], the “IC50, mouse KC secretion by CMT-93 cells; stimulus mIL-17F (30 nM)” value is > 10000 nM. In assay [4], the “IC50, mouse KC secretion by CMT-93 cells; stimulus rIL-17A (1 nM)” value was determined as 467 nM. In addition, the “IC50, KC secretion by CMT-93 cells; stimulus mIL-17A (0.15 nM)” value in assay [5] was found to be 128 nM. Further, the O.D. in [6] is 2.64 O.D; in [7], 0.335 O.D; in assay [8] it was 0.289 O.D; in assay [9], 1.2 O.D; in assay [10], 0.017 O.D; in assay [11] it was 0 O.D. Further, the O.D. in assay [12] was -0.007 O.D; in assay [13], 0.011 O.D; in [14], 0.003 O.D. Further, the IC50 in [15] was 301 nM.
